The text below walks through data of PMC5131891, “Structural Insights into Streptococcal Competence Regulation by the Cell-to-Cell Communication System ComRS” (PLoS Pathogens, 2016).

Where two headings read alike, the source gives them in different places. Peptide text beside a SMILES is read from it.

Data set [1] concerns ComR from S. thermophilus. Set-up: method as in 2 sources, ref [30] = [30]; PMID 23323845; doi:10.1111/mmi.12157; 30 Fontaine L , Goffin P , Dubout H , Delplace B , Baulard A , Lecat-Guillet N , et al Mechanism of competence activation by the ComRS signalling system in streptococci . Mol Microbiol . 2013; 87 ( 6 ||| ref [29] = [29]; PMID 20023010; doi:10.1128/JB.01251-09; 29 Fontaine L , Boutry C , de Frahan MH , Delplace B , Fremaux C , Horvath P , et al A novel pheromone quorum-sensing system controls the development of natural competence in Streptococcus thermophilu. The note with it: cited from earlier work; for in vivo activation efficiency / activation of ComR: previous analysis, ComR from S. thermophilus, ref [30]; for activity of heptapeptide ComS18-24: previous study, lacking the N-terminal Leucine, ref [29].

Data set [2] deals with ComR WT (Streptococcus thermophilus, UniProt A0A1L1QK15). As to the kind of experiment: biochemical. The format is binding, Streptococcus thermophilus LMD-9. As to conditions: for Kd: Table 2 (WT and variant XIPs), ITC, 20°C, 20 mM Tris-HCl pH 8.0, 150 mM NaCl, 1 mM EDTA, 50 μM protein in cell, 500 μM peptide in syringe, one-binding-site model, apparent KD, read-out: KD. How it is done: Purification of ComR-StreptagII proteins (StreptagII at C-terminus) was performed as described previously with some modifications. E. coli strain BL21 Gold cultures were grown in 2YT medium at 15°C until an OD600 of ~ 0.5, cooled down on ice for 10 minutes, and induced by addition of 0.2% of L-arabinose (wt vol^-1) before continuous shaking at 28°C for 4 h. Cells were then harvested by centrifugation (5,000 × g during 15 min at 8°C). The pellets were resuspended in cold buffer W (100 mM Tris-HCl pH 8.0, 150 mM NaCl, 1 mM EDTA) supplemented with 0.5 mg ml^−1 of lysozyme, incubated for 30 min at 4°C, and sonicated at 4°C. […] For structural and biophysical analyses, the purification protocol was completed by a size exclusion chromatography step using a HiLoad 16/600 Superdex 75 prep grade column (GE Healthcare) equilibrated in buffer W plus 10% (vol vol^-1) glycerol. Purified proteins were aliquoted, flash frozen and conserved at -20°C. Their purity was visualized by SDS-PAGE and their concentrations were measured using a Nanodrop apparatus (protein A280 method) (ThermoFisher Scientific).
Isothermal titration calorimetry (ITC) experiments were performed at 20°C in 20 mM Tris-HCl pH 8.0, 150 mM NaCl, 1 mM EDTA with an ITC200 calorimeter (Microcal). The protein concentration in the microcalorimeter cell and the peptide concentration in the syringe were set at 50 μM and 500 μM, respectively. A first injection of 0.4 μl, which was not taken into account for the fitting, was followed by 20 injections of 2 μl at intervals of 180 s. The peptide concentration used in the calculations is based on the weight of the lyophilized peptide and is therefore inaccurate because there may be a significant quantity of bound water, and salts or counter ions. However, the calculated number of binding sites, n, is always close to 1, in agreement with the 1:1 ratio observed in the crystal structure of the ternary complex. […] The data were analyzed using the MicroCal Origin software provided by the manufacturer. […] It was therefore not possible to distinguish the two events and the fitting was performed with the one-binding-site model. The calculated KD are therefore apparent values.

Data set [3] deals with ComR from Streptococcus thermophilus LMD-9 (ComR-StreptagII, wild type) (Streptococcus thermophilus LMD-9). As to the kind of experiment: ITC; peptide 500 μM in the syringe, ComR 50 μM in the cell; 20°C; 20 mM Tris-HCl pH 8.0, 150 mM NaCl, 1 mM EDTA; one-binding-site model; apparent KD (peptide binding and dimerization not told apart).
Data set [4] has as its target ComR Y91A (ComR-StreptagII mutant) (Streptococcus thermophilus LMD-9). The description is as above.
Data set [5] deals with ComR R92A (ComR-StreptagII mutant) (Streptococcus thermophilus LMD-9). The data set is described as above.
The target in data set [6] is ComR from Streptococcus thermophilus LMD-9 (ComR-StreptagII, wild type) (Streptococcus thermophilus LMD-9). The data set is described as above. The source holds these as a separate data set.
Data set [7] concerns the target ComR F171A/Y174A (ComR-StreptagII double mutant) (Streptococcus thermophilus LMD-9). Described as above.
For data set [8], the target named is ComR K87A/K246A (ComR-StreptagII double mutant) (Streptococcus thermophilus LMD-9). Described as above.
Data set [9] deals with ComR K100A (ComR-StreptagII mutant) (Streptococcus thermophilus LMD-9). The data set is described as above.
In data set [10] the target is ComR T90A (ComR-StreptagII mutant) (Streptococcus thermophilus LMD-9). The description is as above.
For data set [11], the target named is T1, ComR WT (Streptococcus thermophilus LMD-9, UniProt PDB:5JUB_1 1-310).
T1 sequence: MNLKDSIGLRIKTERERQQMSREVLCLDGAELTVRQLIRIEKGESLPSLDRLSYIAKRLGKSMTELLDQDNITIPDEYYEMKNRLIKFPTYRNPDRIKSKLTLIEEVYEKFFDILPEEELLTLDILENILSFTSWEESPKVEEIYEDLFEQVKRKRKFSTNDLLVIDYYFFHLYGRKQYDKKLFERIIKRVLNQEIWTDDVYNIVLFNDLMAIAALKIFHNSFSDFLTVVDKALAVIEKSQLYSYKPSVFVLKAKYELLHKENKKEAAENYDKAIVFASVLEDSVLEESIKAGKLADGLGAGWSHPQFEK
Description: X-ray crystallography; XIP (LPYFAGCL); 0.1 M MgCl2 in crystallization; EMSA: 20 mM Tris-HCl pH 8.0, 150 mM NaCl, 1 mM EDTA, 10% glycerol, 1 mg/ml BSA, 37 C 10 min, 40 ng DNA in 20 ul; crystal: 30% PEG 550 MME, 0.1 M MgCl2, 0.05 M Tris-HCl pH 8.5, 18 C. As to conditions: protein: recombinant; tags: C-terminal StreptagII; chain copies: 2; blunt.

“LAYFYPEL [casein-derivative peptide LAYFYPEL]”: the “in vivo activation efficiency / activation of ComR” value in [1] is “inactive”.
Consider “ComS18-24: heptapeptide ComS18-24 lacking the N-terminal Leucine, minimal active form of the signaling peptide (PYFAGCL)”, for which the “activity of heptapeptide ComS18-24” value in data set [1] was “also fully active”; in data set [1] (listed as heptapeptide 18–24), “minimal active form of the signaling peptide”.
Turning to “GAWYYVPL [casein-derived octapeptide GAWYYVPL]”, the “in vivo activation efficiency / activation of ComR” value in data set [1] is recorded as “also activated”.
Take “VPFFMIYY [type I peptide VPFFMIYY from S. vestibularis]”: the “in vivo activation efficiency / activation of ComR” value in data set [1] was “more efficiently activated by the type II peptide MGLDWWSL from S. mutans than by the type I peptide VPFFMIYY”.
Consider `CC(C)C[C@H](N)C(=O)N1CCC[C@H]1C(=O)N[C@@H](Cc1ccc(O)cc1)C(=O)N[C@@H](Cc1ccccc1)C(=O)N[C@@H](C)C(=O)NCC(=O)N[C@@H](CS)C(=O)N[C@@H](C)C(=O)O` [L24A] (H-LPYFAGCA-OH), for which, in [2], the affinity in words entry was “the affinity of the peptide decreases drastically” and the Kd was 1550 ± 332 nM.
In the case of `CC(C)C[C@H](NC(=O)[C@H](CS)NC(=O)CNC(=O)[C@H](C)NC(=O)[C@H](C)NC(=O)[C@H](Cc1ccc(O)cc1)NC(=O)[C@@H]1CCCN1C(=O)[C@@H](N)CC(C)C)C(=O)O` [F20A] (H-LPYAAGCL-OH), in data set [2], the affinity in words result is on record as “the affinity of the peptide decreases drastically” and the Kd was 2130 ± 226 nM.
As for `CC(C)C[C@H](NC(=O)[C@H](CS)NC(=O)CNC(=O)[C@H](C)NC(=O)[C@H](Cc1ccccc1)NC(=O)[C@H](C)NC(=O)[C@@H]1CCCN1C(=O)[C@@H](N)CC(C)C)C(=O)O` [Y19A] (H-LPAFAGCL-OH), in [2], the affinity in words entry is “only little impact on the affinity of the protein” and the Kd is 52 ± 13 nM.
As for “MGLDWWSL [type II peptide MGLDWWSL from S. mutans]”, the “in vivo activation efficiency / activation of ComR” value in data set [1] is given as “more efficiently activated by the type II peptide MGLDWWSL from S. mutans than by the type I peptide VPFFMIYY”.
As for LPYFAGCA [XIP L24A variant (ComS 17-24 with L24A)], in data set [3], the Kd came to 1550 nM and the stoichiometry N worked out at 1.75.
Regarding LPYFAGCL [XIP octapeptide (ComS 17-24, LPYFAGCL) from Streptococcus thermophilus LMD-9], the Kd in data set [4] was 141 nM; in data set [5], 277 nM; in data set [6], 10 nM; in [7] it was 87 nM; in [8], 9 nM; in data set [9], 1180 nM. Also, the figures for the Kd in data set [10] and in [3] were 244 nM and 8 nM, respectively. Further, the stoichiometry N in data set [4] was 0.9; in data set [5], 1.2; in data set [6] it was 0.8; in data set [7], 1.1; in [8], 0.8; in data set [9], 0.8. In addition, the stoichiometry N in data set [10] amounted to 0.7; in data set [3] it was 1.1.

B1: PcomX ComR-box (20 bp) (dsDNA)
DNA 1: TAGTGACATATATGTCTCTA
DNA 2: TAGAGACATATATGTCACTA
As to B1, the binding result in [11] is on record as “binds”.
Turning to LPAFAGCL [XIP Y19A variant (ComS 17-24 with Y19A)], in data set [3], the Kd turned out to be 52 nM and the stoichiometry N came out at 1.5.
On to LPYAAGCL [XIP F20A variant (ComS 17-24 with F20A)], for which, in data set [3], the Kd stood at 2130 nM and the stoichiometry N was found to be 1.2.
